# B1: HBP: Native human heparin-binding protein, mature form with the amino acid sequence SEQ ID NO:1 (protein, listed as Homo sapiens)
# chain: IVGGRKARPRQFPFLASIQNQGRHFCGGALIHARFVMTAASCFQSQNPGVSTVVLGAYDLRRRERQSRQTFSISSMSENGYDPQQNLNDLMLLQLDREANLTSSVTILPLPLQNATVEAGTRCQVAGWGSQRSGGRLSRFPRFVNVTVTPEDQCRPNNVCTGVLTRRGGICNGDGGTPLVCEGLAHGVASFSLGPCGRGPDFFTRVALFRDWIDGVLNNPGPGPA
# Columns and labels:
# [1] = tested on: endothelial cells and fibroblasts; details: cited from earlier work
# [2] = tested on: EC monolayers (HUVEC or BAEC); assay: Transendothelial electrical resistance (TEER) of EC monolayers after HBP stimulation; type: cell-based, human, bovine
# Description: Human umbilical vein endothelial cells (HUVEC) are isolated from fresh umbilical cords as described by Jaffe et al., 1973, J. Clin. Invest. 52:2745-2756), and bovine aorta endothelial cells (BAEC) are isolated according to the method of Booyse et al., 1975, Thromb. Diath. Haemmorrh. 24:825-839) with a few modifications. Briefly, the lumen of the umbilical vein or bovine aorta is incubated with a 0.25% collagenase solution for 10 min, and detached endothelial cells washed out with PBS. Harvested cells are pelleted and resuspended in culture medium, seeded in tissue culture flasks and incubated under standard conditions. Medium is changed every 48 h until cultures have reached confluence (3-5 days). HUVEC or BAEC in the first to fifth passages are used in the experiments. Identification and purity determination of ECs are based on cobblestone morphology and characterization by factor VIII/vWf antigen (Booyse et al., 1975, Thromb. Diath. Haemmorrh. 24:825-839). Staining for factor VIII/vWf factor is homogeneous in the cells.
# Cultured EC are detached by brief (2 min) trypsin-EDTA treatment (0.25% trypsin/0.01% EDTA) and replated onto either 0.2 μm pore size Anopore inorganic membrane or 3.0 μm pore size polycarbonate filters (Tissue Culture inserts, 10 mm; NUNC, Roskilde, Denmark). […] The ECs are grown to confluent monolayers, as assessed by daily microscopic observation and measurement of the electrical resistance across the monolayer.
# For measurement of electrical resistance across the EC monolayer, the filter insert is transferred to a resistance measurement chamber (ENDOHM-12; World Precision Instruments, Sarasota, Fla., USA) modified so as to assure exact positioning of the electrodes in relation to each other and to the filter insert during repeated measurements. […] Direct readings of the electrical resistance are given by an ohmmeter (EVOM; World Precision Instruments, Sarasota, Fla., USA) connected to the electrodes of the resistance chamber. […]
# EC monolayers = assay: F-actin distribution in EC (FITC-phalloidin staining); type: cell-based, human, bovine; details: HBP 75 μg/ml, 15 min
# Description: For analysis of F-actin distribution in EC in response to stimulation with HBP, confluent EC monolayers grown on Biomatrix coated coverslips are incubated with HBP or vehicle alone at 37° C. for 15 min. The monolayers are washed twice in culture medium and fixed in 3.7% formaldehyde in PBS for 10 min at room temperature. EC are permeabilized with 0.2% Triton® X-100 in PBS (1 min at 4° C.), washed twice and stained for actin filaments with FITC-conjugated phalloidin for 20 min at 37° C. The endothelial cells are again washed three times in PBS and viewed in a laser scanning confocal microscope.
# 125I-BPTI = 125I-BPTI binding to HBP, scintillation proximity assay; parameters: species or system bovine
# Description: (§1) The relative affinities of HBP and the mutants are determined by performing competition studies with […] of unlabeled BPTI.
# [3] = as above; parameters: species or system bovine; details: competition with unlabeled BPTI; read-out: apparent IC50 of 125I-BPTI binding
# Description: as §1
# fecal peritonitis = details: HBP treatment; cited from earlier work
molecule,measurement,setting,value
B1,cell contraction,[1],induce contraction
same,onset of decrease in transendothelial resistance,[2]; HBP 75 μg/ml to upper compartment,within one min
same,"decrease in transendothelial resistance, maximum","[2]; HBP 75 μg/ml to upper compartment, after 15 min",30%±3%
same,dose dependence of EC responses (TEER),"[2]; HBP 25, 50 and 75 μg/ml",clearly dose-dependent
same,F-actin content and distribution,EC monolayers,substantial changes in F-actin content and distribution
same,binding of BPTI,125I-BPTI,binds BPTI
same,IC50,[3],~7 nM
same,survival,fecal peritonitis,rescue mice from an otherwise lethal injury

# — patent US20080279856A1, “Inhibition of Bradykinin Release” (Novo Nordisk Pharmaceuticals, Inc., priority 1999, published 2008)
